12 sequences from the DeepSol protein solubility set can be followed below.

This data set is described as follows: soluble on expression in E. coli; label from the status in PepcDB or PDB records.
For the sequence “MYSPKRVKLNVTSGMRKRPETGENNDDLYPPTALARNGISPYFIGKPRRKIVVETPSDSAQQQPPFKSRSQQNGLDDELDGIIIDEDEDRTVDVSFSQKQDTRKLKSRPFLGEKSSFKLGEIPKPKEEKRREEPFTMRGFDFGSDDKVTKIRDKICDIVDPTNARRTDPNFIRQMHENTLKGIEVASNPHFKKTRAPTKNRAAIQNTLGTLYPSFTTAAGQDPQNSKFQVPLDRQSSSQSIGSLAGIPPARRAPDIPKRCSNPLIRKAMGMDTEGGGKDEKMSGLRAEPTLKHFDENIISLIESEIMSVNNEIGWADVAGLEGAKKALREIVVLPFKRPDVFTGIRAPPKGVLLFGPPGTGKTMIGRCVASQCKATFFNISASSLTSKWVGEGEKLVRALFSVARLKLPSVIFIDEIDSLLSSRSESEHESSRRIKTEFLVQLDGVNTAPDERLLVLGATNRPQELDEAARRRFQKRLYIALPEPESRTQIVQNLLVGTRHDITNHNLERIRELTDGYSGADMRQLCTEAAMGPIRDIGDDIETIDKDDIRAVTVMDFAEAARVVRPTVDDSQLDAYAAWDKKFGCLPPPSISR”, the “soluble on expression in E. coli” value is given as “not soluble”. The same measure for “MGSDKIHHHHHHMATLGANASLYSEQHRITYYECDRTGRATLTTLIDIAVLASEDQSDALGLTTEMVQSHGVGWVVTQYAIDITRMPRQDEVVTIAVRGSAYNPYFAYREFWIRDADGQQLAYITSIWVMMSQTTRRIVKILPELVAPYQSEVVKRIPRLPRPISFEATDTTITKPYHVRFFDIDPNRHVNNAHYFDWLVDTLPATFLLQHDLVHVDVRYENEVKYGQTVTAHANILPSEVADQVTTSHLIEVDDYYCCEVTIQWRTLPEPIQ”: “not soluble”. The value for “MDADVIVVGAGLAGLVAAHELTSRGRRVALVDQENAANLGGQAFWSFGGLFLVDSPEQRRLGVKDSLDLAWNDWQGSAGFDRTEDEDSWAVRWARAYVEWAAGEKRSWLAGHGITFLPTVGWAERGDLRAGGHGNSVPRFHIAWGTGTGVVEPFVRYAKQAARDGLLTFHHRHRVDHLVVEDGTARGVRGTVLAPDDSPRGVASSRDTAGEFELAAQAVIVTSGGIGADHDIVRRHWPERLGTPPAEMVTGVPAYVDGRMLGISAEAGARLVNRDRMWHYTEGVRNWDPIWPGHGIRILPGPSSMWFDALGRRLPEPYLPGYDTLGTLRHLRTAEGLAEHGHSWFVLTRKIIEKEFALSGSEQNPDITAKDRAGFLRERVLGKGAPGPVGAFLRHGADFVTAPDLEQLVEKMNRLTDKPLLDAAALRRQIEARDLQLANPYAKDAQVQGIRNARRYIGDRLGRVATPHRLLDPAAGPLIGVKLHILTRKTLGGIQTDLDSRALGADGTPVEGLYAAGEVAGFGGGGVHGYNALEGTFLGGCLFSGRAAGRAAARQTALEHHHHHH” was “not soluble”. “MGSDKIHHHHHHMKADLHVHTCLSPCADLLMIPPVVERASGDVQILGIVDHNSAKNVPAFLKMKKLVVPGIEIQTVEDVHVLGFFSDIESALKVTKIVYEHLPSVKHDHEKMGYQLFVDEKGNYTGYEDVPLGFPSDLTLSQAVELIRSFGGIPVYAHVEKRFGVLYQLGFFPDLEIPVAEVVSREGKENAQKKNLRVIVTSDAHFPSDIGRRYIDISGAPNSPEEVLKKILNSEYTLGGVLNW”: the “soluble on expression in E. coli” value is recorded as “not soluble”.

As for “MGSDKIHHHHHHVVAVNRAVFLDRDGVINKDHGYVHQVDDFEYIEGVFEACLALKKMGYKLVVVTNQSGIARGMYSEDQFHSLTEWMDWNFADKGVDLDGIYYCPHHAEKGMGEYKVDCDCRKPKPGMLNDAAKFLKVDLSQSVMVGDKADDMQAAKAAGVPTRILVRSGKVIADSSDATIVLDSIADVPDYLKA”, the “soluble on expression in E. coli” value is listed as “not soluble”. The value for “MMVWTPVNNKMFETFSYLPPLTDEQIAAQVDYIVANGWIPCLEFAEADKAYVSNESAIRFGSVSCLYYDNRYWTMWKLPMFGCRDPMQVLREIVACTKAFPDAYVRLVAFDNQKQVQIMGFLVQRPKTARDFQPANKRSV” was “soluble”; that for “MKVEKFKVLLYLKKSGLDKNGKAPIMGRITLNRTMAQFGCKLSCTPKLWNPRESRLDGKSKEAVEVNAKIDKLLLAINSAYESLVERKTDFDAKAIKDLFQCSADTQMTLLKQLDAIIADIESRIGIDYKKGTLPNYQYTRLTLGLFVKKRYGTDDVAFGELDEQFIREYMDFCLDERGLALDTVRHYLAILKKTCRIAFKAGHSERYHFMHFKLPQKKENPPKALTREDFLKIRDLEIPERRKSLALTRDLFLFACYTGTAYADTVSITEENLFRDEEGSLWLKYHRKKNKMLARVKLLPEALAMLEKYKDPTRPTLLPPQEFRVLRGNM” was “not soluble”; that for “MSDHENTGENTSEYQYKQPPQKSIDELLNADKEDESLKVYKAKLLGQGTVIVDEKNPLRVIVRSVELLINGKTAQSFDLSDPAKLVNSDLSVSIKEGSNYRLSFAFHVQREITSGLHYKHKVKRSGITVENEKYMMGSYAPKLEIQEYKSPNEEAPSGMMHRGKYKVYSKITDDDNNVYLDWQWTLHITKE” was “not soluble”. “MSATETKYVPRLYKKYKEEVVPILQKKFNYKSPMQIPRLQKIVVNMGVGEAVQDIRQLERAVEDLRAITGQQPVITRARKSEAGFKLRKGMPIGCKVTLRKERMWDFLDKLISVALPRVKDFKGLSPRSFDGRGNYAFGIAEQIVFPEIDYDKVDRIRGMDIIINTTAETDEEAFWLLSLLGLPIRSM”: the “soluble on expression in E. coli” value is listed as “soluble”. Take “MGSDKIHHHHHHQTAEPPKTVRPDQLAFRDLYKELVEINTTLSVGSCTAASEAMGARLKAAGFPEADVRVVVEPKHPREGNLVAVLRGTDATTKPMLLLAHIDVVEAKREDWTRDPFKLVEENGYFYGRGTSDDKAQAAIWVDSLIRLKQAGFKPKRDIKMALTCGEESEGYNGIEDLLKNHRPLVDAEFALNEGASGLLDEQGKAVMLEVQAGEKVYQDFTLTVTNPGGHSSRPVSPNAIYQLSAALDRIGAYQFPPRFNDATRGYFTQMQARVTPEQAAAMKTLVADVNDPAALALITKDRTWNSMLRTTCVATMVSAGHAPNALPQRATANINCRILPGTPIDEVKAKLTELAADPAVAVTLAHSSKPASPPPPLTPAIMAPIQKNAAKLWPGVPILPVMSTGATDAVHTSAAGIPTYGVTGLFHGPEGTGAHGLNERMRVKSLYEGRDFLHGLIQDYAGGK”: the “soluble on expression in E. coli” value was “not soluble”. For “MEYQFTHSIHGIVAKCSMEHEVFARWLNTEIIGHTQNLHNILAEIEKCRAAFPNHYECVFEGQEYSLYFDCDEVIVKVNNLAMAIDEVIVEEGLQLYDQESVAFCGLEDFERFLQAYHKFSSTYH”, the “soluble on expression in E. coli” value is “not soluble”. The same measure for “MSLAEGYQSEADLERELIDDLRRQGYEFLPAIKTPEAMLANVRVQLQALNDVQFSDGEWARFVETWLDKPSDGIVEKTRKIHDDYIHDFVFDDGRIQNIHLVDKKTLVRNKVQVIRQFVTTPALCATPPREGNFSGGEQLWDQFPSFGGVPVGRGGYNRYDVTILVNGLPLVQVELKRRGVAIREAFNQVHRYSKESFNSAHSLFKYLQLFVISNGTDTRYFANTTRRDKNSFDFTMHWAKADNTPIRDLKDFAATFFQKHTLLSVLLHYSVFDVSNTLLVMRPYQIAATERILWKIKSSHQAKTWSTPEGGGYIWHTTGSGKTLTSFKAARLGTELDFIDKVFFVVDRKDLDYQTMKEYQRFSPDSVNGSDSTAGLKRNLEKDDNRIIVTTIQKLNNLMKSEPDLPIYHKQVVFIFDECHRSQFGEAQKNLRKKFKRYLQFGFTGTPIFPENALGAETTASVFGRELHSYVITDAIRDEKVLKFKVDYNDVRPRFKAIETERDEKKLSAAENRQALLHPERIREITQYILTHYRQKTHRLQPGAKGFNALFAVSSVEAAKLYYEAFKTQQKDSAKPLKVATIFSYAANEAQDAVGDIADEGFEVSALNSSAKEFLNAAIADYNALFKTNFSVDSQGFQNYYRDLAKRVKGTDDSGKRLPADEQVDLLIVVGMFLTGFDAPTLNTLFVDKNLRYHGLLQAYSRTNRIFDATKTFGNIVTFRDLEQATIDAITLFGDKNTRNVVLEKSYREYMEGYTDALTGQARRGFVEVVQELQARFPDPAALEKEADKKAFVRLFGEYLRAENVLQNFDEFAALKALQSVNTGDPAAVEAFKAQHYLSDEDLAALQAIKLPPERTMQDYRSTYNDIRDWLRREQAGVEKEKSTIDWDDVVFEVDLLKSQEINLDYILELIFERNKETRSKAELVEEVRRVIRASLGHRAKESLVVDFINQTDLEQLAEGHHHHHH”: “soluble”.
